Molecular target: T1, RBD mouse Fc-tagged antigen (Sino Biological, Cat. No. 40592-V05H) (SARS-CoV-2, UniProt P0DTC2)
T1 construct: source: bought: Sino Biological
Experiment: ELISA
Conditions: both partners purified

B1: S304 IgG (antibody, V domains shown)
VH: EVQLVESGGGLVQPGGSLRLSCAASGFTFSSYDMHWVRQTTGKGLEWVSTIGTAGDTYYPDSVKGRFTISREDAKNSLYLQMNSLRAGDTAVYYCARGDSSGYYYYFDYWGQGTLLTVSS
VL: DIQMTQSPSSLSAAVGDRVTITCRASQSIGSYLNWYQQKPGKAPKLLIYAASSLQSGVPSRFSGSGSGTDFTLTISSLQPEDFAIYYCQQSYVSPTYTFGPGTKVDIK
notes: copies: 2 + 2
**Q.** Does B1 bind?
**A.** binds

From paper PMC7843029 (Cell, 2021)
